# Source: patent US20250034271A1 (EUCURE BEIJING BIOPHARMA, published 2025)
# T1: mouse CD40 (mCD40) on transfected CHO cells (mouse, UniProt P27512 20-289)
# T1 sequence: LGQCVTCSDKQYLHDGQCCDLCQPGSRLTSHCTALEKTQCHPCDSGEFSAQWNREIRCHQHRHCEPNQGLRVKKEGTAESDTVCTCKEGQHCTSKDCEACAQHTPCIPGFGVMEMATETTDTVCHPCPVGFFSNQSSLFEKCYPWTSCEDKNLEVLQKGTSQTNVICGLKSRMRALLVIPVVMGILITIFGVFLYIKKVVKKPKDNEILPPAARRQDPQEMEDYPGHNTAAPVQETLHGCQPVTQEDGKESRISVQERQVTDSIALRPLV
# T2: monkey (rhesus macaque) CD40 (rmCD40) on transfected CHO cells (rhesus macaque, UniProt P25942 21-277 (human entry))
# T2 construct: also called monkey CD40
# T2 chain: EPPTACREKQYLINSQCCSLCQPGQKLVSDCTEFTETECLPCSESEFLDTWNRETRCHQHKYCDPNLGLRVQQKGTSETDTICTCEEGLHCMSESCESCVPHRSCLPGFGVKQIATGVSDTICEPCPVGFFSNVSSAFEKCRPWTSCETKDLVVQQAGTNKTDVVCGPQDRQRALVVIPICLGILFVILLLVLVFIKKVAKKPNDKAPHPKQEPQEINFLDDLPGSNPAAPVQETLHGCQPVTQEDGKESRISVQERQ
# Tests used:
# [1] = molecular target: T3, human CD40 (hCD40) on transiently transfected CHO cells (human, UniProt P25942 21-277); assay: flow cytometry, CHO cells with hCD40, antibody titrated then hCD40L-hFc added (blocked ligand: hCD40L-hFc); y: hCD40 Ligand-hFc, x: Anti-mouse-IgG-Fc-PE
# T3 construct: also called TNF Receptor Superfamily Member 5; TNFRSF5
# Procedure: The anti-hCD40 antibodies were collected from mouse ascites fluid and purified by chromatography. 25 μl CHO cells transiently transfected with human CD40 were added to each well in a plate. The purified antibodies were titrated to final concentrations of 50, 5, 0.5, 0.05, and 0.005 μg/ml. The titrated antibodies were added to each well at 25 μl per well at 4° C. and incubated for 30 minutes.
# hCD40 ligand-hFc was expressed by H293T cells. 50 μl of hCD40L-hFc was added to each well (1:500). The cells with hCD40L-hFc and the antibodies were incubated at 4° C. for 15 minutes.
# After being washed with phosphate-buffered saline (PBS) twice, 50 μl of PE labeled anti-mouse IgG Fc antibody (anti-mIgG Fc-PE) at 1:500 dilution and FITC-labeled anti-human IgG Fc antibody (anti-hIgG Fc-FITC) at 1:100 dilution were added into each well, and incubated for 30 minutes at 4° C., followed by PBS wash. The signals for FITC and PE were determined by flow cytometry.
# [2] = molecular target: T1, mouse CD40 (mCD40) on transfected CHO …; assay: flow cytometry, CHO-mCD40 cells, anti-mIgG Fc-FITC
# Procedure: (§1) 25 μl CHO cells were added to each well. 25 μl purified anti-hCD40 antibodies (1 μg/ml) (7F10, 6A7, or 4H6) were added to each well and were incubated at 4° C. for 30 minutes.
# (§2) After being washed with PBS (1200 rmp, 5 min) twice, 50 μl of FITC labeled anti-mouse IgG Fc antibody (anti-mIgG Fc-FITC) was added into each well 1:100 dilution, followed by incubated at 4° C. for 30 minutes, and then PBS wash (1200 rmp, 5 min). The signals for FITC were detected by flow cytometry.
# [3] = molecular target: T4, chimeric (mouse and human) CD40 (chiCD40) on transfected CHO cells (chimeric (mouse and human)); assay: flow cytometry, CHO-chiCD40 cells, antibody 1 µg/ml, anti-mIgG Fc-FITC; x: Anti-mouse-IgG-Fc-FITC, y: SSC-H
# T4 construct: also called human-mouse chimeric CD40; chimeric CD40
# Procedure: as §1, §2
# [4] = molecular target: T1, mouse CD40 (mCD40) on transfected CHO …; assay: flow cytometry, CHO-mCD40 cells, antibody 1 µg/ml, anti-mIgG Fc-FITC; x: Anti-mouse-IgG-Fc-FITC, y: SSC-H
# Procedure: as §1, §2
# [5] = molecular target: T2, monkey (rhesus macaque) CD40 (rmCD40) …; assay: flow cytometry, CHO-rmCD40 cells, antibody 1 µg/ml, anti-mIgG Fc-FITC; x: Anti-mouse-IgG-Fc-FITC, y: SSC-H
# Procedure: as §1, §2
binder,measurement,setting,value
"mouse anti-hCD40 antibody 03-7F10 (antibody, V domains shown, Mouse antibody purified from ascites) VH: EVKLVESGGGLVQPGGSLKLSCATSGFTFSDYYMYWVRQTPEKRLEWVAYISYGGDSTFYPDTVRGRFTISRDNAKNALYLQMSRLKSEDTAVYYCARPAPSAHSYYLDYWGQGTTLTVSS VL: DIQMTQTTSSLSASLGDRVTISCRASQDISNYLNWYQQKPDGTVKLLIYYTSRLHSGLPSRFSGSGSGTDYSLTISNLEQEDIATYYCQQGKTLPFTFASGTKLEIK",% cells lower left (ligand- / antibody-) at 0.005µg/mL,[1],42.7%
same,% cells lower left (ligand- / antibody-) at 0.05µg/mL,[1],9.95%
same,% cells lower left (ligand- / antibody-) at 0.5µg/mL,[1],7.02%
same,% cells lower left (ligand- / antibody-) at 5µg/mL,[1],12.9%
same,% cells lower left (ligand- / antibody-) at 50µg/mL,[1],12.8%
same,% cells lower right (ligand- / antibody+) at 0.005µg/mL,[1],1.99%
same,% cells lower right (ligand- / antibody+) at 0.05µg/mL,[1],32.1%
same,% cells lower right (ligand- / antibody+) at 0.5µg/mL,[1],47.7%
same,% cells lower right (ligand- / antibody+) at 5µg/mL,[1],78.8%
same,% cells lower right (ligand- / antibody+) at 50µg/mL,[1],78.1%
same,% cells upper left (ligand+ / antibody-) at 0.005µg/mL,[1],4.03%
same,% cells upper left (ligand+ / antibody-) at 0.05µg/mL,[1],0%
same,% cells upper left (ligand+ / antibody-) at 0.5µg/mL,[1],0.056%
same,% cells upper left (ligand+ / antibody-) at 5µg/mL,[1],0%
same,% cells upper left (ligand+ / antibody-) at 50µg/mL,[1],0%
same,% cells upper right (ligand+ / antibody+) at 0.005µg/mL,[1],51.3%
same,% cells upper right (ligand+ / antibody+) at 0.05µg/mL,[1],57.9%
same,% cells upper right (ligand+ / antibody+) at 0.5µg/mL,[1],45.2%
same,% cells upper right (ligand+ / antibody+) at 5µg/mL,[1],8.35%
same,% cells upper right (ligand+ / antibody+) at 50µg/mL,[1],9.09%
same,binding result,[2],no binding
same,% cells in the Anti-mouse-IgG-Fc-FITC positive gate,[3],82.4%
same,% cells in the Anti-mouse-IgG-Fc-FITC positive gate,[4],0.674%
same,% cells in the Anti-mouse-IgG-Fc-FITC positive gate,[5],82.6%
